Positions count from the first letter of the chain named. Where two headings read alike, the source gives them in different places. Values belong to the binder of their own block, whether it stands above or below them.
What was measured:
[1] = target: T1, human PVRIG recombinant protein (human, UniProt Q6DKI7 41-171); assay: SPR, antibody captured via anti-human Fc, human PVRIG analyte
T1 construct: also called human PVRIG protein; recombinant human antigen PVRIG
T1 sequence: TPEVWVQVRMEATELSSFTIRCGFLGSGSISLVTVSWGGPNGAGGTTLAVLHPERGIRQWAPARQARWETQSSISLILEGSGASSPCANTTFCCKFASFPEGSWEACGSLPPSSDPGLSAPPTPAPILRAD
Procedure: Chimeric anti-PVRIG antibodies were generated in human IgG1 format and characterized for binding kinetics by surface plasmon resonance (SPR) assays using BIAcore™ T-200 (GE Life Sciences). […] Then a serial dilution of human or Cyno PVRIG protein was flowed over the chip surface and changes in surface plasmon resonance signals were analyzed to calculate the association rates (kₒₙ) and dissociation rates (koff) by using the one-to-one Langmuir binding model (BIA Evaluation Software, GE Life Sciences). The equilibrium dissociation constant (KD) was calculated as the ratio koff/kₒₙ.

[2] = target: T1, human PVRIG recombinant protein; assay: as above; remark: listed apart in the source
Source text: For affinity determination, antibodies were captured by anti-human Fc antibodies, and used in the affinity determination based on surface plasmon resonance (SPR) technology.

[3] = target: T2, human PVRIG expressed on cells (human, UniProt Q6DKI7 41-326); assay: flow cytometry on Jurkat cells expressing human PVRIG, anti-hFc-AF647 detection
T2 construct: Jurkat cells engineered to express human PVRIG; also called hPVRIG-Jurkat; native human PVRIG
T2 sequence: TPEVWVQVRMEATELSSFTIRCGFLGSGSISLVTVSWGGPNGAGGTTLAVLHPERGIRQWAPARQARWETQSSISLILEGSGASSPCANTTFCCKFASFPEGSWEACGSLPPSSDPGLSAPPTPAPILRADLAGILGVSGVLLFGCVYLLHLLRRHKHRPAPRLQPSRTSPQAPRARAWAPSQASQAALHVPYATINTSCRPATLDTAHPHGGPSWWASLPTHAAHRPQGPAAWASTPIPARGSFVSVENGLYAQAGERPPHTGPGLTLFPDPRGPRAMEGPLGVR
Procedure: To evaluate the binding activity of anti-PVRIG antibodies to native PVRIG on living cells, Jurkat cells were engineered to express human PVRIG. […] EC50 values for dose dependent binding to human native PVRIG were determined by fitting the dose response data to the four-parameter logistic model with GraphPad Prism™.

[4] = target: T3, hPVRIG-ECD-his (human, UniProt Q6DKI7 41-171); assay: competition ELISA, antibody against PVRL2 on coated human PVRIG
T3 construct: Acrobiosystems PVG-H52H4; also called hPVRIG-His; human PVRIG-His; not shown: His tag
T3 sequence: T1 sequence

[5] = target: T3, hPVRIG-ECD-his; assay: blocking ELISA: hPVRIG-His coated, antibody mixed with PVRL2-biotin at 1 ug/mL; % inhibition of PVRL2 binding
[6] = target: T1, human PVRIG recombinant protein; assay: ELISA, chimeric antibody on recombinant human PVRIG
[7] = target: T4, Cyno PVRIG expressed on HEK293 cells (cynomolgus monkey); assay: flow cytometry on 293T cells expressing cyno PVRIG, anti-hFc-AF647 detection
T4 construct: also called native Cyno PVRIG
T4 chain: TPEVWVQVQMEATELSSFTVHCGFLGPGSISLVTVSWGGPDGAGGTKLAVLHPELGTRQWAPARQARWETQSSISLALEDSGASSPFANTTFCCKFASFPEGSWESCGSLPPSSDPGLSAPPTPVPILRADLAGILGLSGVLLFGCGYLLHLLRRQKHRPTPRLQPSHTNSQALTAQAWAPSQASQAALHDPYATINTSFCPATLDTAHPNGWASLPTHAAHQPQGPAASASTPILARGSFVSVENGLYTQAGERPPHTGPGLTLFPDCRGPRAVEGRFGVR
Procedure: (§1) To evaluate the binding activity of anti-PVRIG antibodies to native Cyno PVRIG on living cells. HEK293 cells were engineered to express Cyno PVRIG. HEK293 expressing PVRIG cells were seeded in 96 well plates and were incubated with a serial dilution of anti-PVRIG antibodies. […] EC50 values for dose dependent binding to Cyno native PVRIG were determined by fitting the dose response data to the four-parameter logistic model with GraphPad Prism™.

[8] = target: T2, human PVRIG expressed on cells; assay: FACS on human PVRIG-expressing cells
[9] = target: T5, human PVRL2 overexpressed on Farage cells (human, UniProt Q92692 32-538); assay: flow cytometry: 300 ng/ml hPVRIG-mIgG2a on Farage-hPVRL2 cells, PE anti-mouse IgG2a [panel A]
T5 construct: also called Farage-hPVRL2 cells; surface PVRL2
T5 sequence: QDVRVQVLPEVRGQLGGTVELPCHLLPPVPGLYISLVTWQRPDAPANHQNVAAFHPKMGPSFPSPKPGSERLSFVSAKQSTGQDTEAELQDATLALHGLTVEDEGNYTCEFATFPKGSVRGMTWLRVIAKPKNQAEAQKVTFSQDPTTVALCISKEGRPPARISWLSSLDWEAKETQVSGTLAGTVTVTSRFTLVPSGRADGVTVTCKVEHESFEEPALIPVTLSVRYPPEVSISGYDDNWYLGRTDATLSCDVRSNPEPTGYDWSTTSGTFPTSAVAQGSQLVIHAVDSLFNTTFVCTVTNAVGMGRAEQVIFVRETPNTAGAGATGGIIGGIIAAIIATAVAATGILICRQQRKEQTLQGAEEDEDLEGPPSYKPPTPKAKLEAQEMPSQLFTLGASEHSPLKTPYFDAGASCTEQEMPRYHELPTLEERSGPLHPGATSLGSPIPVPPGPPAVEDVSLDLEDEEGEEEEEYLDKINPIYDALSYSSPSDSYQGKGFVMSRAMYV

[10] = target: T1, human PVRIG recombinant protein; assay: SPR, antibody captured via anti-human Fc, human PVRIG analyte; remark: listed apart in the source
Source text: For affinity determination, anti-PVRIG antibodies were captured by anti-human Fc antibodies, and used in the affinity assay based on surface plasmon resonance (SPR) technology.

[11] = target: T3, hPVRIG-ECD-his; assay: blocking ELISA: hPVRIG-His coated, antibody mixed with PVRL2-biotin at 1 ug/mL; % inhibition of PVRL2 binding [panel A]
[12] = target: T4, Cyno PVRIG expressed on HEK293 cells; assay: flow cytometry on 293T cells expressing cyno PVRIG, anti-hFc-AF647 detection [panel A]
Procedure: as §1, with “cells transfected with Cyno” for “expressing”, “PVRIG” for “PVRIG cells”

[13] = target: T2, human PVRIG expressed on cells; assay: flow cytometry on Jurkat cells expressing human PVRIG, anti-hFc-AF647 detection [panel A]
Procedure: as §1, with “native” for “native Cyno”, “cells, Jurkat” for “cells. HEK293”, “human” for “Cyno”, “Jurkat cells” for “HEK293”, “PVRIG” for “PVRIG cells”, “serially diluted” for “a serial dilution of”

[14] = target: T4, Cyno PVRIG expressed on HEK293 cells; assay: flow cytometry on HEK293 cells expressing cyno PVRIG, anti-hFc-647 detection [panel B]
Procedure: as §1, with “cells transfected with Cyno” for “expressing”, “PVRIG” for “PVRIG cells”

[15] = target: T2, human PVRIG expressed on cells; assay: flow cytometry on Jurkat cells expressing human PVRIG, anti-hFc-647 detection [panel B]
Procedure: as §1, with “native” for “native Cyno”, “cells, Jurkat” for “cells. HEK293”, “human” for “Cyno”, “Jurkat cells” for “HEK293”, “PVRIG” for “PVRIG cells”, “serially diluted” for “a serial dilution of”

binding result [9]: binds
B2: human PVRIG-mIgG2a (Fc fusion)
chain: T1 sequence
notes: also called hPVRIG-mIgG2a; hPVRIG; not shown: mouse IgG2a Fc

Kd [2]: 0.898 nM
koff [2]: 0.00216 s⁻¹
kon [2]: 2.41e+06 M⁻¹ s⁻¹
EC50 (read off the curve) [3]: ~0.01 µg/mL
IC50 (read off the curve) [5]: ~0.1 µg/mL
EC50 (read off the curve) [7]: ~0.01 µg/mL
B4: BGA862 (antibody, V domains shown)
VH: EVQLVESGGGLVKPGGSLRLSCAASGFTFSSYGLSWVRQAPGKGLEWVSEISSGGTYTYYPDTVTGRFTISRDNAKNTLYLQMSSLRAEDTAVYYCARGDPFGYWGQGTLVTVSS
VL: DIQMTQSPSSLSASVGDRVTITCKASQDVMTAVAWYQQKPGKAPKLLIYSTSYRFTGVPSRFSGSGSGTDFTLTISSLQPEDFATYYCQQHYSTPRTFGGGTKVEIK
notes: Humanized BGA86

Kd [10]: 0.0646 nM
koff [10]: 0.000211 s⁻¹
kon [10]: 3.26e+06 M⁻¹ s⁻¹
IC50 (read off the curve) [11]: ~0.4 µg/mL
EC50 (read off the curve) [12]: ~0.03 µg/mL
EC50 (read off the curve) [13]: ~0.03 µg/mL
B7: BGA382 (antibody, V domains shown)
VH: EVQLVQSGAEVKKPGASVKVSCKASGYTFTDYWIYWVRQAPGQGLEWMGTIDTSDHKTSYNQKFRGRVTMTRDTSTSTVYMELSSLRSEDTAVYYCARDFIITVNYPVVDYWGQGTLVTVSS
VL: QNVLTQSPATLSLSPGERATLSCSAGSSVNYLHWFQQKPGQAPRLLIYSTSNLASGVPARFSGSGSGTDYTLTISSLEPEDFAVYYCQQRSSLPFTFGQGTKLEIK
notes: Humanized BGA38

Continued, binder first:

B1: BGA86 (antibody, human IgG1, V domains shown)
VH: EVQLQESGGGSVKPGGSLQLSCAASGFTFSSYGMSWIRQSPEKKLEWVAEISSGGTYTYYPDTVTGRFTISRDNAKNTLYLEMSSLRSEDTAMYYCARGDPFGYWGQGTLVTVSA
VL: DVVMTQSHKFVSTSVGGRVSITCKASQDVMTAVAWYQQKPGQSPKLLIYSTSYRFTGVPDRFTGSGSGTDFTLTINGVQAEDLAVYSCQQHYSTPRTFGGGTKLEIK
notes: also called BGA86-WT
Kd [1]: 0.161 nM
koff [1]: 0.00215 s⁻¹
kon [1]: 1.34e+07 M⁻¹ s⁻¹
Kd [2]: 0.304 nM
koff [2]: 0.000772 s⁻¹
kon [2]: 2.54e+06 M⁻¹ s⁻¹
EC50 (read off the curve) [3]: ~0.02 µg/mL
IC50 [4]: 0.885 nM
PVRIG/PVRL2 blocking Emax (% Inhibition) [4]: 97.2%
IC50 (read off the curve) [5]: ~0.1 µg/mL
EC50 [6]: 0.069 nM
EC50 (read off the curve) [7]: ~0.01 µg/mL
EC50 [8]: 0.038 nM
binding Emax (MFI) [8]: 1030 MFI

B3: BGA861 (antibody, V domains shown)
VH: B4 VH with L34I
VL: B4 VL
notes: Humanized BGA86
Kd [2]: 0.645 nM
koff [2]: 0.000954 s⁻¹
kon [2]: 1.48e+06 M⁻¹ s⁻¹
EC50 (read off the curve) [3]: ~0.02 µg/mL
IC50 (read off the curve) [5]: ~0.2 µg/mL
EC50 (read off the curve) [7]: ~0.04 µg/mL

B5: BGA38 (antibody, V domains shown)
VH: EVQLQESGAEHVMPGASVKMSCKAAGYTFTDYWMYWVKQRPGQGLEWIGTIDTSDHKTSYNQKFRGKATLTVDESSSTAYMQLSSLTSEDSAVYYCARDFIITVNYPVVDYWGQGTSVTVSS
VL: QNVLTQSPAIMSASPGEKVTITCSAGSSVNYMHWFQQKPGTSPKLWIYSTSNLASGVPARFSGSGSGTSYSLTISRMEAEDAATYYCQQRSSLPFTFGSGTKLEIK
notes: also called BGA38-WT
Kd [1]: 0.112 nM
koff [1]: 0.00017 s⁻¹
kon [1]: 1.52e+06 M⁻¹ s⁻¹
Kd [10]: 0.045 nM
koff [10]: 0.000175 s⁻¹
kon [10]: 3.89e+06 M⁻¹ s⁻¹
IC50 (read off the curve) [11]: ~0.6 µg/mL
IC50 [4]: 1.5 nM
PVRIG/PVRL2 blocking Emax (% Inhibition) [4]: 60%
EC50 (read off the curve) [12]: ~0.05 µg/mL
EC50 (read off the curve) [13]: ~0.03 µg/mL
EC50 [6]: 0.524 nM
EC50 [8]: 0.059 nM
binding Emax (MFI) [8]: 1040 MFI

B6: BGA381 (antibody, V domains shown)
VH: B7 VH
VL: B7 VL with N2I, L32M
notes: Humanized BGA38; also called BGA381-WT; BGA381/IgG1 WT
EC50 (read off the curve) [14]: ~0.06 µg/mL
Kd [10]: 0.0707 nM
koff [10]: 0.000311 s⁻¹
kon [10]: 4.4e+06 M⁻¹ s⁻¹
IC50 (read off the curve) [11]: ~0.4 µg/mL
EC50 (read off the curve) [15]: ~0.03 µg/mL
EC50 (read off the curve) [12]: ~0.06 µg/mL
EC50 (read off the curve) [13]: ~0.03 µg/mL

Source: patent US20250326842A1 (BEIGENE SWITZERLAND, published 2025)
